The values below come from patent US20050059089A1 (priority 2003, published 2005).

The target in one assay is T1, mouse GPCR142 (Mus musculus, UniProt Q7TQP4).
T1 construct: The complete coding region of the mouse GPCR142 was deposited in GenBank; expressed in transfected cells; CHO membranes (GTPγS, by the general protocol); HEK293 with Gα16 (Ca2+)
T1 sequence (Q7TQP4 1-414): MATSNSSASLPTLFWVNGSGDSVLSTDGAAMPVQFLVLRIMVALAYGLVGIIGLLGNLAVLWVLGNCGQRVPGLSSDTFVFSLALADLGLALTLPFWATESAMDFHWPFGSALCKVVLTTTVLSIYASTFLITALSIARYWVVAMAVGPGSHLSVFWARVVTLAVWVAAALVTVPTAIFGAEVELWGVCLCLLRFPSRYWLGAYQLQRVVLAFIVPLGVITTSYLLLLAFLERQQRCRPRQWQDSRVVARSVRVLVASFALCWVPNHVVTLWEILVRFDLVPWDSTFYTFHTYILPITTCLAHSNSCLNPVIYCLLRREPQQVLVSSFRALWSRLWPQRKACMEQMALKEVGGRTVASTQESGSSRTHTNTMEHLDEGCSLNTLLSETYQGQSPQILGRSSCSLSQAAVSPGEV
Briefly: Ca2+ mobilization assay, mouse GPCR142 and Gα16. The format is cell-based. The conditions noted are these: cells expressing mouse GPCR142 and Gα16. As to the method:
(§1) Human embryonic kidney (HEK) 293 cells were transfected with GPCR135,.GPCR142 or co-transfected with Gqi5 (Conklin et al. (1993), Nature 363, 274-280) or Gα16 (Amatruda et al. (1991), Proc. Natl. Acad. Sci. U.S.A. 88, 5587-5591) expressing plasmids using LipofectAmine. Two days after transfection, cells were detached with PBS plus 10 mM EDTA. The detached cells were washed with DMEM-F12 medium (without phenol red, Invitrogen) and seeded in black poly-D lysine coated 96-well plates (BD Biosciences, San Jose, Calif.) at a cell density of 50,000 cell/well.

The target of assay [1] is T2, GPCR135 (Homo sapiens, UniProt Q9NSD7).
T2 sequence (Q9NSD7 1-469): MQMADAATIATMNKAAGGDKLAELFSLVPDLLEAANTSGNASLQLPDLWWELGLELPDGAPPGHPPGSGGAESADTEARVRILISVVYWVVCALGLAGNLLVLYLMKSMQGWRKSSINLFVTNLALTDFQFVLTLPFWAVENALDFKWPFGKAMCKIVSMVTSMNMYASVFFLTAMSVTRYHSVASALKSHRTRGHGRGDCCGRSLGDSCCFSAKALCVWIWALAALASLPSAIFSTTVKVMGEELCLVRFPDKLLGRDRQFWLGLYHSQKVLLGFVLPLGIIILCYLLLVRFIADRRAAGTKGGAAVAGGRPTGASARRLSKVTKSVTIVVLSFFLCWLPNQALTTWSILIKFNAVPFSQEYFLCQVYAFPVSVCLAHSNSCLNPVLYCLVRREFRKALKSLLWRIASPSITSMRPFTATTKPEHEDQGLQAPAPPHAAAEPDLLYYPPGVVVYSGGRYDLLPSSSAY
Briefly: Ca2+ mobilization assay, 293 cells co-expressing GPCR135 and Gqi5. In kind it is cell-based. As to the method:
as §1
In general terms: Calcium flux is commonly read through the fluorescence of an indicator in the cells.

For assay [2], the target named is T2, GPCR135. Briefly: Inhibition of forskolin-stimulated cAMP (CRE-β-galactosidase) in SK-N-MC cells. Also noted: expressed in transfected cells. The format is cell-based. Conditions: SK-N-MC cells stably expressing GPCR135. Here is the method:
(§2) SK-N-MC cells stably expressing GPCR142 were established by transfection of GPCR142 expressing plasmids into SK-N-MC cells harboring a β-galactosidase gene under control of multiple cAMP responsive elements. The stable transfectants were selected by culturing the transfected cells under G418 selection (400 mg/L). The receptor expressing cells were seeded in 96-well plates at a cell density of 30,000 cells/well. After 24 h, cells were stimulated with forskolin or different peptides. Cells were cultured for an additional 6 h and the intracellular β-gal activity, which represents the intracellular cAMP accumulation, was measured as described by Liu et al. (2000), Mol. Pharmacol., 59, 420-426.
The same experiment was performed using GPCR135.

Assay [3] deals with T3, GPCR142 (Homo sapiens, UniProt Q8TDU9, L329S). Briefly: Radioligand binding assay with 125I-relaxin3 (saturation and competition), COS-7 cell membranes. Also on record: The complete coding region of human GPCR142 was PCR-amplified from human genomic DNA; expressed in transfected cells. The conditions noted are these: competition binding, COS-7 membranes; listed as unlabeled relaxin3. As to the method: The binding mixtures were incubated at room temperature for 1 h and then were filtered through 96-well GFC plates (Packard) and washed with ice-cold washing buffer: 50 mM Tris-HCl, pH 7.4. Fifty microliters of Microscint-40 were added to each well and the plates were counted in a Topcounter NTX (Packard). The radioligand binding results were analyzed using GraphPad PRISM software.
T3 sequence (Q8TDU9 whole entry L329S): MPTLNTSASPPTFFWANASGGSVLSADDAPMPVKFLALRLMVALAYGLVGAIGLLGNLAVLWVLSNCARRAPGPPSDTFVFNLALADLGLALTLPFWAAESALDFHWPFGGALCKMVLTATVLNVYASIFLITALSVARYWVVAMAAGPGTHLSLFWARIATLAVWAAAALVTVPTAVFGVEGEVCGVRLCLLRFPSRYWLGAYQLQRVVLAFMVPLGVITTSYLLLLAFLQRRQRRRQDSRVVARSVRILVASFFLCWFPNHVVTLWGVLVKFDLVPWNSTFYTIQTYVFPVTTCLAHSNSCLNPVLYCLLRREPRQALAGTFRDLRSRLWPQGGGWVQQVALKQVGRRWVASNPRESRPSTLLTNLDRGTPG
The binding assays were performed at room temperature for an incubation time of one hour. The binding mixtures were then filtered through GFC filters pre-saturated with 0.3 polyethylenimine (Sigma) and washed with cold binding buffer. The bound radioligand was counted in a top counter (TopCount/NTX, Packard) with Microscint-40. The results were analyzed by Prism 3.0 software.

Assay [4] addresses T3, GPCR142. The experiment in a line: Inhibition of forskolin-stimulated cAMP (CRE-β-galactosidase) in SK-N-MC cells. In kind it is cell-based. Also on record: The complete coding region of human GPCR142 was PCR-amplified from human genomic DNA; expressed in transfected cells; HEK293 co-transfected with Gqi5 (Ca2+). The conditions noted are these: SK-N-MC cells stably expressing GPCR142. As to the method: as §2

Assay [5] addresses T3, GPCR142. The experiment in a line: Ca2+ mobilization assay (FLIPR), HEK293 cells co-expressing GPCR142 and Gα16. The format is cell-based. Also on record: The complete coding region of human GPCR142 was PCR-amplified from human genomic DNA; expressed in transfected cells; HEK293 co-transfected with Gα16 (Ca2+). Here is the method: as §1
Assay [6] concerns the target T3, GPCR142. Briefly: Ca2+ mobilization assay, 293 cells co-expressing GPCR142 and Gqi5. In kind it is cell-based. Also noted: The complete coding region of human GPCR142 was PCR-amplified from human genomic DNA; expressed in transfected cells; HEK293 co-transfected with Gqi5 (Ca2+). Here is the method: as §1

Entries after “also recorded” stand apart in the source; their conditions may differ. Like-named read-outs stand apart in the source and are kept apart here.

Take “relaxin3: Human relaxin3 (SEQ ID NO: 6), produced recombinantly; mature peptide of A- and B-chain linked by disulfide bridges”: in the assay with mouse GPCR142, the “Ca2+ response” value is recorded as “did not stimulate detectable Ca^2+ response”. For the same substance, the “stimulation of Ca2+ mobilization” value in the assay with GPCR135 [1] is recorded as “stimulates Ca^2+ mobilization”; in the assay with GPCR142 [5] it was “stimulated Ca2+ mobilization; also recorded: stimulated a strong Ca^2+ signal; also recorded: stimulates Ca^2+ signaling”. Besides, the “inhibition of forskolin induced β-galactosidase expression” value in the assay with GPCR135 [2] and with GPCR142 [4] was “dose-dependently inhibits” in each case. In the assay with GPCR142 [3], the “displacement of 125I-relaxin3 binding to GPCR142” value is on record as “specifically displaced”. For the same substance, the “stimulation of Ca2+ signaling” value is reported as “No relaxin3-stimulated Ca^2+ signaling was observed” with GPCR142 [6] and “does not stimulate any detectable Ca^2+ signal” with GPCR142 [6] (listed as Relaxin3).
